Results published in patent publication US7531333B2, “Process for producing isoprenoid compounds by microorganisms and a method for screening compounds with antibiotic or weeding activity” (Kyowa Hakko Kogyo Co., Ltd., priority 1998, dated 2009).

Substrate: CC(=O)[C@@H](O)[C@H](O)COP(=O)(O)O
Experiment: Enzymatic activity of yaeM gene product (NADPH decrease, absorbance at 340 nm)
Assay type: biochemical, E. coli
Details: other: in the presence of MnCl2; pH 7.5; 37.0 °C
Procedure: 0.3 mol/l of 1-deoxy-D-xylulose 5-phosphate (final concentration) synthesized as described above was added to 1 ml of a reaction solution containing 100 mol/l Tris-hydrochloric acid (pH 7.5), 1 mol/l MmCl2, 0.3 mol/l NADPH and yaeM gene product obtained in Example 8 (2) ? , and then incubated at 37° C.
The enzymological characteristics of 1-deoxy-D-xylulose 5-phosphate reductoisomerase were examined using 1 ml of the reaction system as described in Example 8 (2) ? . Here, 1 unit is defined as the activity to oxidize 1 mmol of NADPH per a minute.

B1: 1-deoxy-D-xylulose 5-phosphate reductoisomerase (Escherichia coli K-12) (protein)
chain: MKQLTILGSTGSIGCSTLDVVRHNPEHFRVVALVAGKNVTRMVEQCLEFSPRYAVMDDEASAKLLKTMLQQQGSRTEVLSGQQAACDMAALEDVDQVMAAIVGAAGLLPTLAAIRAGKTILLANKESLVTCGRLFMDAVKQSKAQLLPVDSEHNAIFQSLPQPIQHNLGYADLEQNGVVSILLTGSGGPFRETPLRDLATMTPDQACRHPNWSMGRKISVDSATMMNKGLEYIEARWLFNASASQMEVLIHPQSVIHSMVRYQDGSVLAQLGEPDMVRQLPTPWAWPNRVNSGVKPLDFCKLSALTFAAPDYDRYPCLKLAMEAFEQGQAATTALNAANEITVAAFLAQQIRFTDIAALNLSVLEKMDMREPQCVDDVLSVDANAREVARKEVMRLAS
notes: made in house; host or cells: E. coli M15/pREP4
Work on B1 yielded a Km of 249 µM.
